Target: recombinant human paraoxonase 2 (rPON2) (human) (UniProt Q15165)
Assay: SEC; Hi-Load 26/600 Superdex 75, renaturing buffer (20 mM Hepes pH 8.5, 0.5 mM CaCl2, 0.1% trehalose), 1.5 mL/min, pooled Ni-NTA fractions of refolded rPON2; calibrated with gel filtration markers; dimer to monomers

“recombinant human paraoxonase 2 (rPON2) (from UniProt Q15165 1-354) (enzyme)” was tested, and the stoichiometry N was 2.

— PMC11173892
